We go through four substances from PMC6433694.

Data set [1] is described as follows: western blot of eIF4E, Huh7 and PLC/PRF/5. Conditions: glycan lost; control: control shRNA.
Data set [2] can be described thus: western blot of exogenous eIF4E, Huh7. Conditions: glycan lost; control: wild-type eIF4E.
Data set [3] is described as follows: cycloheximide chase, western blot, Huh7. Conditions: glycan lost; control: wild-type eIF4E.
The nature of data set [4]: Flag IP, anti-ubiquitin blot, MG132-treated Huh7. Conditions: glycan lost; control: wild-type eIF4E.

For the substance “eukaryotic initiation factor 4E (eIF4E): OGT shRNA1 / OGT shRNA2”, the expression_or_secretion result in data set [1] is recorded as “decreases”.
Regarding “eukaryotic initiation factor 4E (eIF4E): T168,177A”, the expression_or_secretion result in data set [2] is “decreases”. In addition, in data set [3], the degradation_or_half_life result is “decreases”. In addition, the “other: ubiquitination” value in data set [4] is on record as “increases”.
As to “eukaryotic initiation factor 4E (eIF4E): T168A”, the expression_or_secretion result in data set [2] is given as “decreases”. Moreover, in data set [3], the degradation_or_half_life entry is “decreases”. Besides, the “other: ubiquitination” value in data set [4] was “increases”.
As to “eukaryotic initiation factor 4E (eIF4E): T177A”, the expression_or_secretion result in data set [2] was “decreases”. Further, the degradation_or_half_life entry in data set [3] is “decreases”. The “other: ubiquitination” value in data set [4] was “increases”.
